According to patent US6028055A, “Receptor selective BNP” (Genetech, Inc., priority 1997, dated 2000):

T1: NPR-C (Homo sapiens, UniProt P17342)
T1 construct: expressed in transfected cells
T1 sequence (P17342 27-541): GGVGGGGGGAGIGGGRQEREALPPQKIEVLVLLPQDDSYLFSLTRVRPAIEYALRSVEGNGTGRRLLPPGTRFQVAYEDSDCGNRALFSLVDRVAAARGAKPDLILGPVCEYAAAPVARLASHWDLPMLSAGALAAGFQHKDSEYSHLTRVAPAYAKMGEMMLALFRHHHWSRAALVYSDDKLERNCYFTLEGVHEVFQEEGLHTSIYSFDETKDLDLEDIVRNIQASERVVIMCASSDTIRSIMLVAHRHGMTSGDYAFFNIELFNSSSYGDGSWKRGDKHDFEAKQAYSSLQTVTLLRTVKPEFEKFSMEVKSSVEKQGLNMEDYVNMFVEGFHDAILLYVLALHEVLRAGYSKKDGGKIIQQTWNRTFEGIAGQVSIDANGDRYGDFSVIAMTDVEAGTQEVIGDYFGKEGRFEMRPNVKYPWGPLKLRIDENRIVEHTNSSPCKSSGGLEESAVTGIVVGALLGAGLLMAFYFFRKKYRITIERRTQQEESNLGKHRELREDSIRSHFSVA

T2: NPR-C expressed in stable 293 cell lines (membranes) (human) (UniProt P17342)
T2 sequence: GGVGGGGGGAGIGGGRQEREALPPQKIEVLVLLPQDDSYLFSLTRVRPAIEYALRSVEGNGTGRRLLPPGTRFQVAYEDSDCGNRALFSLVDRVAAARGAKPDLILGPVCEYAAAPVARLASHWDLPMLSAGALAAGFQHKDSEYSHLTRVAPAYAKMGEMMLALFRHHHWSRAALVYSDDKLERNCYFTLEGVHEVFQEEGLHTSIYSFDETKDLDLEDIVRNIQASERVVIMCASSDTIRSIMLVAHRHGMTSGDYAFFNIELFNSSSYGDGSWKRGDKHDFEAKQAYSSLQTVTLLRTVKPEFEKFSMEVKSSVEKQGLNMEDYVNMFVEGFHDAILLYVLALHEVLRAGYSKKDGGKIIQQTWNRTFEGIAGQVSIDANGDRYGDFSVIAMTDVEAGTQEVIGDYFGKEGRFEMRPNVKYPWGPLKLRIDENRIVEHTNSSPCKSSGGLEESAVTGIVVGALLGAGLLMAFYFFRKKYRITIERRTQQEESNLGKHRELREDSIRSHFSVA

T3: NPR-A (Homo sapiens, UniProt P16066)
T3 construct: expressed in transfected cells
T3 sequence (P16066 33-1061): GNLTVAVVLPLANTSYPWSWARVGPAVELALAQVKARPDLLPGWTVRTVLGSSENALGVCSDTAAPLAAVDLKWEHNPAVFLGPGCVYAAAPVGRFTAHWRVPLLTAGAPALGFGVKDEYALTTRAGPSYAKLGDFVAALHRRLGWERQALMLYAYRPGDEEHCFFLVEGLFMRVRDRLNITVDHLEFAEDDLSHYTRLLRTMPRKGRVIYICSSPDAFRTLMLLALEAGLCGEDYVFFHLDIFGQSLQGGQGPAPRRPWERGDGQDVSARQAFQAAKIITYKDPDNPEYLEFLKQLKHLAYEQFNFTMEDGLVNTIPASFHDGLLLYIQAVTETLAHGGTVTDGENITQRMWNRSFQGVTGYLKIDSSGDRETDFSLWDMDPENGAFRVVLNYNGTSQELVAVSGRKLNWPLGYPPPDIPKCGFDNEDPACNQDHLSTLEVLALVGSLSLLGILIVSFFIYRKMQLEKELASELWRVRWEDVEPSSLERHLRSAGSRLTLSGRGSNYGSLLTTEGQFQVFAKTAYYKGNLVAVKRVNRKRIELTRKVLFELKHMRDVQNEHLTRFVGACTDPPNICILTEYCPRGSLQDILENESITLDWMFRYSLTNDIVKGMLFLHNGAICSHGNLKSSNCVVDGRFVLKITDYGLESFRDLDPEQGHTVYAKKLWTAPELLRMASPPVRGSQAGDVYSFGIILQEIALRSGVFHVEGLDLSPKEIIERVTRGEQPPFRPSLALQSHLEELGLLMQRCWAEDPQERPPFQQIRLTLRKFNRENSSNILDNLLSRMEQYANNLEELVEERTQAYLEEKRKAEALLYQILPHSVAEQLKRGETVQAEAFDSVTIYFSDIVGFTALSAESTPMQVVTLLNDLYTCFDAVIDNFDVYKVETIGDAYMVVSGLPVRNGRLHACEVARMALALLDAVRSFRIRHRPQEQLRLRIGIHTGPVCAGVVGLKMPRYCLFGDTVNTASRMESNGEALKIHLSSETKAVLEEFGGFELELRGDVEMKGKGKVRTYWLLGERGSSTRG

T4: NPR-C expressed in stable 293 cell lines (membranes) (human, UniProt P17342)
T4 sequence: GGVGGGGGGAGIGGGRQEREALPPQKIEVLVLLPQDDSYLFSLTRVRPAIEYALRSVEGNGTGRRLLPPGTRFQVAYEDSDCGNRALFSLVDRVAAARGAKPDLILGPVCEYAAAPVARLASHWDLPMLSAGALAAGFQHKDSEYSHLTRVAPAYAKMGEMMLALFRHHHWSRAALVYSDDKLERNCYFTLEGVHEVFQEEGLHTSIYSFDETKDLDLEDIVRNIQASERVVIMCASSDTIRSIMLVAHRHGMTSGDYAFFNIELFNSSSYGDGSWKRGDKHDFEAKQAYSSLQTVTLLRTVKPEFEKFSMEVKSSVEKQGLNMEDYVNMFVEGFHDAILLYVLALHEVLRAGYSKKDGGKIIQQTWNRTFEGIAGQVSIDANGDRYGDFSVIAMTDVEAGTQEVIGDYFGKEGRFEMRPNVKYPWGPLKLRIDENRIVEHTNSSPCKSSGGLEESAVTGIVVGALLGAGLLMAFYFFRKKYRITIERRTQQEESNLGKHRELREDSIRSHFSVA


Columns and labels:
NPR-C = target: T1, NPR-C; assay: Measurement of binding affinities for NPR-C, membranes from stable 293 cell lines, 125I rat ANP displacement; set-up: unit not given here; conditions: pure synthetic peptide vs 30 pM 125I rat ANP, 2 hours room temperature; duplicate points, three separate assays
Protocol: (§1) Membrane Preparation Membranes from stable 293 cell lines expressing NPR-A (Lowe and Fendly (1992) J. Biol. Chem.) or NPR-C (Cunningham et al. (1994) supra) were prepared by removing the cells from tissue culture plates with 0.5MM EDTA in PBS, centrifuging at 225×g, 4° C., and resuspending in 50 mM Hepes Ph7.4, 1 mM EDTA, 1 mM DTT, 250 mM Sucrose, 0.7 μg/ml Pepstatin A, 0.5 μg/ml Leupeptin, 1 mM PMSF, 1 μM Phosphoramidon. The resuspended cells were homogenized for 30 seconds with a Brinkman polytron on setting 5. The homogenate was centrifuged in 30 ml corex tubes in Sorval HB-4 rotor at 400×(1500 rpm) for 10 minutes at 4° C. The supernatant was centrifuged again in screw cap polycarbonate tubes (Beckman 355618) at 100,000×g (31,500 rpm) for 30 minutes, 4° C. in a Beckman TI60 rotor. The pellet was resuspended in 50 mM Hepes, 0.1 mM EDTA, 5.0 mM MgCl2, 100 mM NaCl, 0.7μg/ml Pepstatin A, 0.5 μg/ml Leupeptin, 1 mM PMSF, 1 μM Phosphoramidon and homogenized again with 15 strokes in a Dounce homogenizer (Wheaton 7 ml, #357542). The membranes were passed through a 22 gauge needle several times before aliquoting into eppendorf tubes for storage at -80° C.
(§2) The binding was allowed to go for 2 hours at room temperature in 96 well U-bottomed microtiter polypropylene plates (Sigma M-4029) with gentle agitation. The bound hormone was separated from the free using a Packard Filtermate 196 cell harvester and 1% polyethyleneimine-saturated Packard unifilter-96 GF/B plates by vacuum filtration. The plates were dried under vacuum chamber for 10 minutes prior to adding 40 μl Microscint-20 scintillant and counting in a Packard Topcount scintillation counter. Each affinity represents points measured in duplicate within three separate assays.

[1] = target: human natriuretic peptide receptor-A expressed in 293 cells (human) (UniProt P16066); assay: competition with 30 pM 125I-rat ANP on membranes of 293 cells expressing NPR-A; unit not given
[2] = target: T2, NPR-C expressed in stable 293 cell lines (membranes) (human); assay: competition with 30 pM 125I-rat ANP on membranes of 293 cells expressing NPR-C; unit not given
NPR-A = target: T3, NPR-A; assay: Measurement of binding affinities for NPR-A, membranes from stable 293 cell lines, 125I rat ANP displacement; conditions: pure synthetic peptide vs 30 pM 125I rat ANP, 2 hours room temperature; duplicate points, three separate assays
Protocol: as §1, §2

[3] = target: human natriuretic peptide receptor-A expressed in 293 cells (human, UniProt P16066); assay: competition with 30 pM 125I-rat ANP on membranes of 293 cells expressing NPR-A; unit not given
Protocol: as §1, with “µg/ml” for “μg/ml”, “µM” for “μM”, “MgCl_2,” for “MgCl2,”, “0.7µg/ml” for “0.7μg/ml”, “−80°” for “-80°”
as §2, with “µl” for “μl”

[4] = target: T4, NPR-C expressed in stable 293 cell …; assay: competition with 30 pM 125I-rat ANP on membranes of 293 cells expressing NPR-C; unit not given
Protocol: as §1, with “µg/ml” for “μg/ml”, “µM” for “μM”, “MgCl_2,” for “MgCl2,”, “0.7µg/ml” for “0.7μg/ml”, “−80°” for “-80°”
as §2, with “µl” for “μl”

Sequence of hBNP Ser19Arg (SEQ ID NO: 4) (peptide) (peptide): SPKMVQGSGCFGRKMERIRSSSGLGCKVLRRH

| Molecule | NPR-C binding affinity (Assay #1) (NPR-C) | affinity (NPR-A) [1] | affinity (NPR-C) [2] | affinity (NPR-A) [3] | affinity (NPR-C) [4] | other results |
| --- | --- | --- | --- | --- | --- | --- |
| hANP Gly16Arg [reference compound] | 10,601 ± 1271 |  |  |  |  |  |
| hBNP (SEQ ID NO: 1) (peptide) |  | 645 | 1790 |  |  |  |
| hBNP Arg13Gly, Lys14Arg, Ser19Arg (SPKMVQGSGCFGGRMDRIRSSSGLGCKVLRRH) | 28,370 ± 9,654 |  |  |  |  |  |
| hBNP Gly23Phe, Leu24Trp, Gly25Arg (SEQ ID NO: 2) (peptide) |  | 378 | 9360 |  |  |  |
| hBNP Gly23Phe, Leu24Trp, Gly25Arg (SPKMVQGSGCFGRKMERISSSSFWRCKVLRRH) | 9363 ± 2067 |  |  |  |  | NPR-A binding affinity (Assay #1) (NPR-A): 378 ± 136 |
| hBNP Ser19Arg | 95,498 ± 14,603 |  |  |  |  | NPR-A binding affinity (Assay #1) (NPR-A): 155 ± 55.3 |
| hBNP Ser19Arg (SEQ ID NO: 4) (peptide) |  | 155 | 95500 |  |  |  |
| hBNP Ser19Arg Gly23Phe, Leu24Trp, Gly25Arg (SPKMVQGSGCFGRKMERIRSSSFWRCKVLRRH) | 172,400 ± 120,096 |  |  |  |  | NPR-A binding affinity (Assay #1) (NPR-A): 287 ± 27 |
| SPKMVQGSGCFGRKMERIRSSSFWRCKVLRRH [hBNP Ser19Arg, Gly23Phe, Leu24Trp, Gly25Arg (SEQ ID NO: 7)] |  | 287 | 172000 |  |  |  |
| SLRRSSCFGGRIDRIGAQSGLGCNSFRY [hANP (SEQ ID NO: 51)] |  |  |  | 43.5 | 198 |  |
| SLRRSSCFGGRIDRIRAQSGLGCNSFRY [hANP Gly16Arg (SEQ ID NO: 52)] |  |  |  | 17.2 | 10600 |  |
| SLRRSSCFGGRIDRIGAQSFWRCNSFRY [hANP Net12Ile, Gly20Phe, Leu21Trp, Gly22Arg (SEQ ID NO:50)] |  |  |  | 507 | 295 |  |
| SPKMVQGSGCFGGRMDRIRSSSGLGCKVLRRH [hBNP Arg13Gly, Lys14Arg, Ser19Arg (SEQ ID NO:49)] |  |  |  | 518 | 28400 |  |
